From patent US20240352434, “COMPOSITIONS COMPRISING A VARIANT CAS12I3 POLYPEPTIDE AND USES THEREOF” (Arbor Biotechnologies, Inc., published 2024) come the findings set out here.

Data set [1] has as its target T1, Cas12i3 T977R (Unidentified, T977R).
T1 chain: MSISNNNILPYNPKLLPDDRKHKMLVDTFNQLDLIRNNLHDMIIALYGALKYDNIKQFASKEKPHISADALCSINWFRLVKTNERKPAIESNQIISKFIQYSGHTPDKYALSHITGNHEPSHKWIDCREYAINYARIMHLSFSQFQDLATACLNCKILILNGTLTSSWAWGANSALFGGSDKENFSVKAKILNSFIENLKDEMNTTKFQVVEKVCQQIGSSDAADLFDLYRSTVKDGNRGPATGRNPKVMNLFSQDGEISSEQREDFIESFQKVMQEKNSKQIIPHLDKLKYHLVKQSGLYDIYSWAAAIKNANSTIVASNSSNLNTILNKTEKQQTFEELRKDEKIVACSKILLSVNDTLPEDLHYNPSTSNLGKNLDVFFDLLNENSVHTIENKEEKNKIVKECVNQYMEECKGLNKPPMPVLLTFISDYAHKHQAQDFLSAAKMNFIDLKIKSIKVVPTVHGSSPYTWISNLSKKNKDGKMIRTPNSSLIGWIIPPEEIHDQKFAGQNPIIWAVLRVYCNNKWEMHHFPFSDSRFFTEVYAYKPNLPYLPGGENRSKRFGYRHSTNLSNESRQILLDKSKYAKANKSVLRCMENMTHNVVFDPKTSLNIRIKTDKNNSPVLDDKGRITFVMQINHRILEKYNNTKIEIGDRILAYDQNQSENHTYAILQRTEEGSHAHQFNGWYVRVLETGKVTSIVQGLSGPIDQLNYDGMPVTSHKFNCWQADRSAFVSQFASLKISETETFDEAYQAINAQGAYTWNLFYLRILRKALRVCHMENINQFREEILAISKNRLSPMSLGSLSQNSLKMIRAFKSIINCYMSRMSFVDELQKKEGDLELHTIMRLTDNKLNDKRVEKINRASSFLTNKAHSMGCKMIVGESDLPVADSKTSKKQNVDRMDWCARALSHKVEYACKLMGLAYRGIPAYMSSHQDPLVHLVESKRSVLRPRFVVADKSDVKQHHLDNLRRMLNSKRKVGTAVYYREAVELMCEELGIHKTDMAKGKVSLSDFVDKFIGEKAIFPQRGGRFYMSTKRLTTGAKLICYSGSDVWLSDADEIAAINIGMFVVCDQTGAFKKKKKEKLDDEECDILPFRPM
Put plainly: cell_activity; fold change in % indels, HEK293T; PAM not stated in example. Put shortly: (§1)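 HEK293T cells lipofected with Lipofectamine 2000 (crRNA omitted in negative controls). Harvested 72 h post-transfection and lysed in QuickExtract. Target loci amplified by two-round PCR and sequenced on NextSeq (150 cycles) to quantify % indels.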

Data set [2] concerns the target T2, Cas12i3 K583R N711R C724R (Unidentified, K583R,N711R,C724R).
T2 chain: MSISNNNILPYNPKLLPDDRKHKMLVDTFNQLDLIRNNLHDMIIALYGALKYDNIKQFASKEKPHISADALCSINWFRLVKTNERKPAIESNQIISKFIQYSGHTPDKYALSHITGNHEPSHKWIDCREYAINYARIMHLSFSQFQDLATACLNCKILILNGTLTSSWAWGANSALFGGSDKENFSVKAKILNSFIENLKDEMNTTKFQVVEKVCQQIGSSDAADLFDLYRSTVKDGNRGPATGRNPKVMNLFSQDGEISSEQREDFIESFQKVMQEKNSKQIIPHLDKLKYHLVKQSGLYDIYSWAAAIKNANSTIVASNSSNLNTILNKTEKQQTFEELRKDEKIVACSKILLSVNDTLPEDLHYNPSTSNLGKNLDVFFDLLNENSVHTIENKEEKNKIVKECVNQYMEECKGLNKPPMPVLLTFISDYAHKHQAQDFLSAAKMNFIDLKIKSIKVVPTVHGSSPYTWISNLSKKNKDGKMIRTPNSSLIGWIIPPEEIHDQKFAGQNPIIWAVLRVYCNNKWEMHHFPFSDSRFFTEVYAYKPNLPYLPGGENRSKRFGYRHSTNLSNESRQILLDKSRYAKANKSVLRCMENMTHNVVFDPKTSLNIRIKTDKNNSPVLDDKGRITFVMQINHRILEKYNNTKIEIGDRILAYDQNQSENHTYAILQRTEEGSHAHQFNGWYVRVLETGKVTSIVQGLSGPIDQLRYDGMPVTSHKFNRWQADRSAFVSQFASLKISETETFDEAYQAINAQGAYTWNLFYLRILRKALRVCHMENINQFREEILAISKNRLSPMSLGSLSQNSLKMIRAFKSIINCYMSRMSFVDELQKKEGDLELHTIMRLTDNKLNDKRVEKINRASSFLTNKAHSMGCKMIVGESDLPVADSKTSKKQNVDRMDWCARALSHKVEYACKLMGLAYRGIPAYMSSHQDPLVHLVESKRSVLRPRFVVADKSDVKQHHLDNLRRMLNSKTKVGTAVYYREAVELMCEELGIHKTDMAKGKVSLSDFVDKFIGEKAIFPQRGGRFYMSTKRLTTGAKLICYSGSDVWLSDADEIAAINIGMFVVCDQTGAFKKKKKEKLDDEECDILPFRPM
The data set is described as above. Put shortly: as §1

B1: EMX1_T5 crRNA ; EMX1_T5 target (ssRNA ; dsDNA)
RNA: AUAGUGUGUCCUUAGUUGACAUUAUUAUUCCCAUAGGGAAGG
DNA 1: TATTATTCCCATAGGGAAGG
DNA 2: CCTTCCCTATGGGAATAATA
Consider B1, for which the binding signal in data set [1] is 1.04 fold of wild-type; in data set [2], 1.99 fold of wild-type.

B2: VEGFA_T2 crRNA ; VEGFA_T2 target (ssRNA ; dsDNA)
RNA: AUAGUGUGUCCUUAGUUGACAUAAUCCUCCACCAGUCAUGGU
DNA 1: AATCCTCCACCAGTCATGGT
DNA 2: ACCATGACTGGTGGAGGATT
For the molecule B2, the binding signal is 1.35 fold of wild-type in data set [1] and 2.57 fold of wild-type in data set [2].

B3: AAVS1_T3 crRNA ; AAVS1_T3 target (ssRNA ; dsDNA)
RNA: AUAGUGUGUCCUUAGUUGACAUGUGAGAAUGGUGCGUCCUAG
DNA 1: GTGAGAATGGTGCGTCCTAG
DNA 2: CTAGGACGCACCATTCTCAC
Consider B3, for which the binding signal is 2.37 fold of wild-type in data set [1] and 2.96 fold of wild-type in data set [2].
